Target: WT His-tagged PCNA (recombinant Xenopus PCNA) (UniProt P18248)
Sequence (P18248 whole entry): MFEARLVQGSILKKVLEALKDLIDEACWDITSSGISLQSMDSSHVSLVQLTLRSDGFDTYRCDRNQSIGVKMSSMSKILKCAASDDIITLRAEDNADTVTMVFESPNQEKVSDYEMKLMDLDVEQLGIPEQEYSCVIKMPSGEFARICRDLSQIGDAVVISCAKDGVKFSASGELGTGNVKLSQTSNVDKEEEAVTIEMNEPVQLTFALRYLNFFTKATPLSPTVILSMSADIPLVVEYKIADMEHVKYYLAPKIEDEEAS

Substance: C470A GST-APE2 (mutant of full GST-APE2)
- exonuclease activity on FAM-labeled gapped dsDNA, purified proteins in vitro: the gapped dsDNA structure was still resected by C470A APE2 or F486A-Y487A APE2 to some extent similar to WT APE2 with the presence of WT PCNA

Substance: F486A-Y487A GST-APE2 (mutant of full GST-APE2)
- exonuclease activity on FAM-labeled gapped dsDNA, purified proteins in vitro: the gapped dsDNA structure was still resected by C470A APE2 or F486A-Y487A APE2 to some extent similar to WT APE2 with the presence of WT PCNA

— US20200017862
